Source: PMC5480026

Columns and labels:
[1] = biological target: T1, hIFNγ receptor hIFNGR1 (human (endogenous in WISH)) (UniProt P15260)
T1 sequence: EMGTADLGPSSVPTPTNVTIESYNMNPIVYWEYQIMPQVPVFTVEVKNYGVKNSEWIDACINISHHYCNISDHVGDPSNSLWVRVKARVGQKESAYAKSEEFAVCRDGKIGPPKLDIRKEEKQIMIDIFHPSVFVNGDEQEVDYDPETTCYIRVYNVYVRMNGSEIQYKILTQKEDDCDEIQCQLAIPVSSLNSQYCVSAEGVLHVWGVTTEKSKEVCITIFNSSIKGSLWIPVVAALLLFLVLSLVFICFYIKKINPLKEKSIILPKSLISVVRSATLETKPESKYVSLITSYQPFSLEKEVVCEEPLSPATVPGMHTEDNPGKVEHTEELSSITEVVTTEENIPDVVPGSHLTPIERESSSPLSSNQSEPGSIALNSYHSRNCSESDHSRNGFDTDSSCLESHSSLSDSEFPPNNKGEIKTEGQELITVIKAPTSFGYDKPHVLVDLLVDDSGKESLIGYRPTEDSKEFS

[2] = biological target: T1, hIFNγ receptor hIFNGR1 (human (endogenous in WISH)); remark: listed apart in the source

| Substance | biological activity, kynurenine bioassay on WISH cells [1] [times lower] | specific biological activity after tag removal, kynurenine bioassay on WISH cells [2] [IU/mg] |
| --- | --- | --- |
| His6-FLAG-K88Q fusion protein expressed in E. coli (from UniProt P01579 24-161) (ligand) | 100 | – |
| His6-FLAG-hIFNγ fusion protein expressed in E. coli (from UniProt P01579 24-161) (ligand) | 100 | – |
| human interferon-gamma (hIFNγ), tag-free after enterokinase removal of the His6-FLAG tag (from UniProt P01579 24-161) (ligand) | – | 3e+07 |
